Data taken from publication doi:10.1101/293811 (bioRxiv, 2018).

Target: alanine or glycine:cation symporter (AgcS) from Methanococcus maripaludis (Methanococcus maripaludis, UniProt Q6LX42)
Assay: crystal structure

alanine or glycine:cation symporter (AgcS) from Methanococcus maripaludis, sequence (Q6LX42 whole entry): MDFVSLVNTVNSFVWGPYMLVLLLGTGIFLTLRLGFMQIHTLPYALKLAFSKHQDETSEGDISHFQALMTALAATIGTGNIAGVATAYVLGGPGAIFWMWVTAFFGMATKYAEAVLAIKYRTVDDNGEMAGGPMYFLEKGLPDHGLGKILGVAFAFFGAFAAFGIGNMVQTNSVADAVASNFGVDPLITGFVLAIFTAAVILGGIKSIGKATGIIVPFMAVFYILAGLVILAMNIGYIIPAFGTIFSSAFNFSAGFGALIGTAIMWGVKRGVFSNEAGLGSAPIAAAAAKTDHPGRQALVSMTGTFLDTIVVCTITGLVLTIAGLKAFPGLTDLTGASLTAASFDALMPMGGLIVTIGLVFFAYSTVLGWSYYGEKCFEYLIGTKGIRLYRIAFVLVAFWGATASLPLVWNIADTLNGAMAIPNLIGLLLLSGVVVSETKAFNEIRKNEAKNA

- binding result: binds
B1: 7B4 Fab fragment (Fab, V domains shown)
VH: EVKLEESGGGLVQPGGSMKLSCAASGFTSSDFAMDWVRQSPEAGLEWVAEIAASERHYAESVKGRFTISRDDSKSSVYLQMNSLRAEDSGLYYCTRTAGACGQWGTGTTVTVSS
VL: DIAMTQSPASLSASVGETVTITCRTSENIASALAWYQQKQGKSPQLLVMNAKTLAAGVPSRFSGSGSGTAFSLKINSLQPEDFGSYSCQHAAGWLLTFGGGTKLEIK
